Data taken from article PMC4186855, “A Soybean C2H2-Type Zinc Finger Gene GmZF1 Enhanced Cold Tolerance in Transgenic Arabidopsis”.

T1: GmZF1 (GST fusion) (Glycine max (soybean), UniProt Q4FH86 1-172)
T1 sequence: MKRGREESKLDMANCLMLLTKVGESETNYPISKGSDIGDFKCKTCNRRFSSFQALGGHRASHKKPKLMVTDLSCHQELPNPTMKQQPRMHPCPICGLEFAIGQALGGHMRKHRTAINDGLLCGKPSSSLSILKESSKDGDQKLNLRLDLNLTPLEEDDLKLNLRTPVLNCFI


Target: T1, GmZF1 (GST fusion)
Assay: EMSA; 20 µL binding buffer with 32P-labelled probe, glycerine and 0.2 µg purified protein; 6% polyacrylamide gel in TBE (printed as 0.53, probably 0.5x); salt, pH and temperature not stated
Conditions: protein: recombinant; tags: GST (pGEX-4T-1); label: 32P

Binder | binding result
E2 (mutant EP1S, base substitution) (dsDNA) DNA 1: TTCAGAGTGTCACTTCAGAGTGTCACTTCAGAGTGTCACTTCAGAGTGTCAC DNA 2: GTGACACTCTGAAGTGACACTCTGAAGTGACACTCTGAAGTGACACTCTGAA | binds
E1 (wild-type EP1S, 4 copies) (dsDNA) DNA 1: TTGACAGTGTCACTTGACAGTGTCACTTGACAGTGTCACTTGACAGTGTCAC DNA 2: GTGACACTGTCAAGTGACACTGTCAAGTGACACTGTCAAGTGACACTGTCAA | binds
